What is called Vmax is the rate approached at saturating substrate. A word on the kcat/Km: it is the turnover number divided by the Michaelis constant. Usually stoichiometry N stands for the number of molecules, sites or subunits per partner or assembly.

For series [1], the target named is T1, FrST (Frondihabitans sp., UniProt Z9JZO3RSK1).
T1 construct: synthetic gene in pET28a, E. coli BL21(DE3); His-tag cleaved with thrombin; model 302 residues; catalytic Cys247
Put plainly: colorimetric ferric thiocyanate assay at […] nm, Michaelis-Menten fit. The series is classed as biochemical. Conditions: read-out: Kinetic parameters^* / Km.

For series [2], the system named is CC(CS)C(=O)O. Put plainly: purified protein. The series is classed as biochemical, Frondihabitans sp. Conditions: pH 8.0; 25.0 °C.
In series [3] the test system is CS(=O)(=O)S. Put plainly: purified protein. Conditions: pH 8.0; 25.0 °C. The series is classed as biochemical, Frondihabitans sp.
Series [4] deals with O=C(O)C(=O)CS. Put plainly: purified protein. The series is classed as biochemical, Frondihabitans sp. Conditions: pH 8.0; 25.0 °C.
Series [5] concerns O=C(O)CCS. Put plainly: purified protein. It is filed as biochemical, Frondihabitans sp. Conditions: pH 8.0; 25.0 °C.
For series [6], the system named is O=S(=O)(S)c1ccccc1. Put plainly: purified protein. It is filed as biochemical, Frondihabitans sp. Conditions: pH 8.0; 25.0 °C.
The target of series [7] is sulfurtransferase FrST from Frondihabitans sp. PAMC28461 (Frondihabitans sp. PAMC28461). Put plainly: AUC; sedimentation velocity, 20 mM Tris-HCl pH 8.0, 200 mM NaCl, 20°C, 42,000 RPM, 280 nm, SEDFIT.

Consider `O=S(O)(O)=S` [Sodium thiosulfate], for which the Km in series [1] was found to be 6.3 ± 0.2 mM.
Consider FrST (Frondihabitans sp.), for which the Km in series [2] was found to be 4.1 ± 0.4 mM; in series [3], 6.0 ± 0.3 mM; in series [4], 13.9 ± 2.6 mM; in series [5], 10.7 ± 1.3 mM; in series [6], 6.1 ± 0.9 mM. The Vmax was determined as 17.8 µmol/min/mg in series [2]; 1490 µmol/min/mg in series [3]; 150 µmol/min/mg in series [4]; 43.7 µmol/min/mg in series [5]; 7810 µmol/min/mg in series [6]. Further, the kcat/Km in series [2] came out at 240 M⁻¹ s⁻¹; in series [3], 14200 M⁻¹ s⁻¹; in series [4] it was 610 M⁻¹ s⁻¹; in series [5] it was 250 M⁻¹ s⁻¹; in series [6] it was 73000 M⁻¹ s⁻¹.
For the compound “sulfurtransferase FrST from Frondihabitans sp. PAMC28461 (enzyme)”, the stoichiometry N in series [7] stood at 2.

The record behind these values is paper PMC10962793, “Structural and functional characterization of sulfurtransferase from Frondihabitans sp. PAMC28461” (PLOS ONE, 2024).
